The values below are quoted from earlier work in patent US11845786B2, “Peptides inhibiting KLK1, KLK4, or KLK4 and KLK8” (Daiichi Sankyo Company, Limited, priority 2017, dated 2023).

For one data set, the target named is T1, KLK12 (Homo sapiens, UniProt Q9UKR0).
T1 sequence (Q9UKR0 18-248): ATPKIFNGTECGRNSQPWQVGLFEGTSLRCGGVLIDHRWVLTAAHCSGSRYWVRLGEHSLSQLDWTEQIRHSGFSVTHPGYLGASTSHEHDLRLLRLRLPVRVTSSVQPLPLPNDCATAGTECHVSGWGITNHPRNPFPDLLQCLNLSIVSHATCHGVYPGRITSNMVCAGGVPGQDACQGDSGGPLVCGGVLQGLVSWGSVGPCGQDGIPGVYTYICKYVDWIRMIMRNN
Particulars: Non Patent Literature 5.

A further data set deals with KLK4 (Homo sapiens, UniProt Q9Y5K2). Particulars: Non Patent Literature 5.
The target in a further data set is T2, KLK13 (Homo sapiens, UniProt Q9UKR3).
T2 sequence (Q9UKR3 17-277): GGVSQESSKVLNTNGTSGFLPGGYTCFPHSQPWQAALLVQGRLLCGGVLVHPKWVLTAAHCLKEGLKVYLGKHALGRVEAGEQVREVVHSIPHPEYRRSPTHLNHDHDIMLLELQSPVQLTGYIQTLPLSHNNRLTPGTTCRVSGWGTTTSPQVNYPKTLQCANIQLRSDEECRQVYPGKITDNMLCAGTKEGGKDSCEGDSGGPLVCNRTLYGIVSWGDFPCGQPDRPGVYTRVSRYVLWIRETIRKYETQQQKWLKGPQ
Particulars: Non Patent Literature 5.

Another data set addresses T3, KLK8 (Homo sapiens, UniProt O60259).
T3 sequence (O60259 33-260): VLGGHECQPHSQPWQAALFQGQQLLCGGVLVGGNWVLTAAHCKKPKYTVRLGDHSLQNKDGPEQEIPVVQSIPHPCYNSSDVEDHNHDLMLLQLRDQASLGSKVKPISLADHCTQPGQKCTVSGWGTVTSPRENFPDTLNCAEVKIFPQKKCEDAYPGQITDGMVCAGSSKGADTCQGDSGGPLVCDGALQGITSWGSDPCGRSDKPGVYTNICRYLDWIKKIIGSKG
Particulars: Non Patent Literature 7.

KLK4, sequence (Q9Y5K2 31-254): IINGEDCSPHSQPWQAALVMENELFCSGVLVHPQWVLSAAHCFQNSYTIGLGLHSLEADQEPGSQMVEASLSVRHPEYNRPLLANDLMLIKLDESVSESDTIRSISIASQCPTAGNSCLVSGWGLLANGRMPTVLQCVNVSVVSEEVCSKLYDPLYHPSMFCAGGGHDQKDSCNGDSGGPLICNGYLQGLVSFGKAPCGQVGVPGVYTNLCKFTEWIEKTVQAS

In the case of “SPINK6: human serine protease of Kazal-type 6, natural KLK4 inhibitor of low specificity (QGGQVDCGEFQDPKVYCTRESNPHCGSDGQTYGNKCAFCKAIVKSGGKISLKHPGKC; UniProt Q6UWN8 24-80, looked up)”, the inhibition constant Ki with KLK12 was 1 nM; with KLK4, 27 nM; in the data set with KLK13, 1 nM.

B1: SPINK9: human serine protease of Kazal-type 9, reported to have KLK8 inhibitory activity (protein, UniProt Q5DT21 20-86, looked up)
Serine protease inhibitor …: IECAKQTKQMVDCSHYKKLPPGQQRFCHHMYDPICGSDGKTYKNDCFFCSKVKKTDGTLKFVHFGKC
As for B1, in the data set with KLK8, the KLK8 inhibitory activity entry is on record as “very weak”.

In general, Ki refers to a measure of affinity in units of concentration, obtained from inhibition or displacement.
